Data: publication PMC7159911 (Science Advances, 2020)

Molecular target: the molecule itself
Assay: cryo-EM structure

B1: rBAT (SLC3A1), human, N-terminal 10x His tag (natural protein, UniProt Q07837-1 1-685, looked up)
chain: MAEDKSKRDSIEMSMKGCQTNNGFVHNEDILEQTPDPGSSTDNLKHSTRGILGSQEPDFKGVQPYAGMPKEVLFQFSGQARYRIPREILFWLTVASVLVLIAATIAIIALSPKCLDWWQEGPMYQIYPRSFKDSNKDGNGDLKGIQDKLDYITALNIKTVWITSFYKSSLKDFRYGVEDFREVDPIFGTMEDFENLVAAIHDKGLKLIIDFIPNHTSDKHIWFQLSRTRTGKYTDYYIWHDCTHENGKTIPPNNWLSVYGNSSWHFDEVRNQCYFHQFMKEQPDLNFRNPDVQEEIKEILRFWLTKGVDGFSLDAVKFLLEAKHLRDEIQVNKTQIPDTVTQYSELYHDFTTTQVGMHDIVRSFRQTMDQYSTEPGRYRFMGTEAYAESIDRTVMYYGLPFIQEADFPFNNYLSMLDTVSGNSVYEVITSWMENMPEGKWPNWMIGGPDSSRLTSRLGNQYVNVMNMLLFTLPGTPITYYGEEIGMGNIVAANLNESYDINTLRSKSPMQWDNSSNAGFSEASNTWLPTNSDYHTVNVDVQKTQPRSALKLYQDLSLLHANELLLNRGWFCHLRNDSHYVVYTRELDGIDRIFIVVLNFGESTLLNLHNMISGLPAKMRIRLSTNSADKGSKVDTSGIFLDKGEGLIFEHNTKNLLHRQTAFRDRCFVSNRACYSSVLNILYTSC
modifications: five glycosylation sites in the extracellular domain (residues 111 to 685)
- stoichiometry N: 2
